# B1: 350123xCD3 biparatopic PSMAxCD3 multi-specific antibody (bispecific antibody, human IgG4 S228P, kappa, F234A L235A)
# heavy 1: QLQLQESGPGLVKPSETLSLTCTVSGGSISSSNYFWGWIRQSPGKGLEWIGSIDYSGYTYYNPSLKSRVTISVDTSKNQFSLKLSSVTAADTAVYNCARHKAATADFDYRGQGTLVTVSSGGGGSGGGGSQVQLVESGGGVVQPGRSLRLSCAASGFSFSRYGMHWVRQAPGKGLEGVAVIWYDGSNRYYADSVKGRFTISRDNSKNTLYLQMNSLRAEDTAVYYCAREPRIGYYYESSGYYSLDYRGQGTLVTVSSESKYGPPCPPCPAPEAAGGPSVFLFPPKPKDTLMISRTPEVTCVVVDVSQEDPEVQFNWYVDGVEVHNAKTKPREEQFNSTYRVVSVLTVLHQDWLNGKEYKCKVSNKGLPSSIEKTISKAKGQPREPQVYTLPPSQEEMTKNQVSLSCAVKGFYPSDIAVEWESNGQPENNYKTTPPVLDSDGSFFLVSRLTVDKSRWQEGNVFSCSVMHEALHNHYTQKSLSLSLGK
# heavy 2: EVQLVESGGGLVQPGRSLRLSCAASGFTFDDYAMHWVRQAPGKGLEWVSGISWNSGSIGYADSVKGRFTISRDNAKNSLYLQMNSLRAEDTALYYCAKDSRGYGDYRLGGAYWGQGTLVTVSSASTKGPSVFPLAPCSRSTSESTAALGCLVKDYFPEPVTVSWNSGALTSGVHTFPAVLQSSGLYSLSSVVTVPSSSLGTKTYTCNVDHKPSNTKVDKRVESKYGPPCPPCPAPEAAGGPSVFLFPPKPKDTLMISRTPEVTCVVVDVSQEDPEVQFNWYVDGVEVHNAKTKPREEQFNSTYRVVSVLTVLHQDWLNGKEYKCKVSNKGLPSSIEKTISKAKGQPREPQVYTLPPSQEEMTKNQVSLWCLVKGFYPSDIAVEWESNGQPENNYKTTPPVLDSDGSFFLYSRLTVDKSRWQEGNVFSCSVMHEALHNHYTQKSLSLSLGK
# light: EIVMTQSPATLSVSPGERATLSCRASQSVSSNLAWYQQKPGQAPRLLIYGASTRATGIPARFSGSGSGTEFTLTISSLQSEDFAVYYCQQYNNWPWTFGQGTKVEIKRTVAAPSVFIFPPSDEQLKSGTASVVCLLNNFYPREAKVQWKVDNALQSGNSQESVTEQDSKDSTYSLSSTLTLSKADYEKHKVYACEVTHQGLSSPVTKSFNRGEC
# notes: also called biparatopic molecule
# Assays:
# [1] = biological target: T1, human PSMA (Prostate Specific Membrane Antigen, Glutamate Carboxypeptidase II) on cells (human, UniProt Q04609 1-750); test: cell-based or functional assay
# T1 sequence (Q04609 whole entry): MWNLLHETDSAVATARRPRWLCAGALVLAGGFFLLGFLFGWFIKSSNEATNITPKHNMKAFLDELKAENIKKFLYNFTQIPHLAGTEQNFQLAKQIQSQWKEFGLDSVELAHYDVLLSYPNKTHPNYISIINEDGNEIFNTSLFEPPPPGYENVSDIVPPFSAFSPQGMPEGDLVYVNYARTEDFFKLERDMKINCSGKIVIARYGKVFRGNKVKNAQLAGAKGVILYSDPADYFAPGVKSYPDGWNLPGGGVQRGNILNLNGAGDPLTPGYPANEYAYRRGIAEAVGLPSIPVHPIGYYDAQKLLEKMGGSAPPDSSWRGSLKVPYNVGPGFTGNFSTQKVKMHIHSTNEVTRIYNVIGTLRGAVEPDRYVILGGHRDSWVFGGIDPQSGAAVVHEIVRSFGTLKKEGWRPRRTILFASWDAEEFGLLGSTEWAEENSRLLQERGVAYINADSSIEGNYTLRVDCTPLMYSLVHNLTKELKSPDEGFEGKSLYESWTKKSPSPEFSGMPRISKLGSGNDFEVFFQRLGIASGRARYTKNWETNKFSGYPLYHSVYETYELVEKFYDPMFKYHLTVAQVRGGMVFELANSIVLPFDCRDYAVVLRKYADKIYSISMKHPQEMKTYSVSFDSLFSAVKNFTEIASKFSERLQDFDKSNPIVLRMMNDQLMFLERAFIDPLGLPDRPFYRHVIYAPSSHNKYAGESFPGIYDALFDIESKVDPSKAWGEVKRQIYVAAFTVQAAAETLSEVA
# [2] = biological target: T1, human PSMA (Prostate Specific Membrane …); test: flow cytometry cell binding, 22Rv1 cells
# [3] = biological target: T1, human PSMA (Prostate Specific Membrane …); test: flow cytometry cell binding, LNCAP cells
# [4] = biological target: T1, human PSMA (Prostate Specific Membrane …); test: flow cytometry cell binding, PC3-PSMA cells
# [5] = biological target: T1, human PSMA (Prostate Specific Membrane …); test: flow cytometry cell binding, MDA-PCa-2b cells
binder,measurement,setting,value
B1,"IFNγ EC50, 22Rv1 cells",[1],380 nM
same,"IFNγ EC50, LNCAP cells",[1],3.29 nM
same,"IFNγ EC50, MDA-PCa-2b cells",[1],0.9 nM
same,"IFNγ EC50, PC3-PSMA cells",[1],1.01 nM
same,"IL-2 EC50, LNCAP cells",[1],3.73 nM
same,"IL-2 EC50, MDA-PCa-2b cells",[1],1.11 nM
same,"IL-2 EC50, PC3-PSMA cells",[1],1.1 nM
same,"Kill EC50, 22Rv1 cells, resting T-cells",[1],0.42 nM
same,"Kill EC50, LNCAP cells, resting T-cells",[1],0.84 nM
same,"Kill EC50, MDA-PCa-2b cells, resting T-cells",[1],0.41 nM
same,"Kill EC50, PC3-PSMA cells, resting T-cells",[1],0.4 nM
same,EC50,[2],3 nM
same,EC50,[3],2 nM
same,EC50,[4],6 nM
same,EC50,[5],2 nM
